Experiments:
gemi_human GMNN [1] = biological target: gemi_human GMNN (UniProt O75496)
gemi_human GMNN [2] = biological target: gemi_human GMNN (UniProt O75496); remark: listed apart in the source

Chain of gemi_human GMNN (O75496 whole entry): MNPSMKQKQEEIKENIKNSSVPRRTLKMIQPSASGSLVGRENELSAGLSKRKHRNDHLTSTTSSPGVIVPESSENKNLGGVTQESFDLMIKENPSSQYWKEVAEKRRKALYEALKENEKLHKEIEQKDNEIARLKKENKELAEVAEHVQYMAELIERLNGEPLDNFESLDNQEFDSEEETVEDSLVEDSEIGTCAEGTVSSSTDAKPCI
Chain of Paired box protein Pax-6 (Homo sapiens), P26367 A252R;A263M (P26367 whole entry A252R/A263M): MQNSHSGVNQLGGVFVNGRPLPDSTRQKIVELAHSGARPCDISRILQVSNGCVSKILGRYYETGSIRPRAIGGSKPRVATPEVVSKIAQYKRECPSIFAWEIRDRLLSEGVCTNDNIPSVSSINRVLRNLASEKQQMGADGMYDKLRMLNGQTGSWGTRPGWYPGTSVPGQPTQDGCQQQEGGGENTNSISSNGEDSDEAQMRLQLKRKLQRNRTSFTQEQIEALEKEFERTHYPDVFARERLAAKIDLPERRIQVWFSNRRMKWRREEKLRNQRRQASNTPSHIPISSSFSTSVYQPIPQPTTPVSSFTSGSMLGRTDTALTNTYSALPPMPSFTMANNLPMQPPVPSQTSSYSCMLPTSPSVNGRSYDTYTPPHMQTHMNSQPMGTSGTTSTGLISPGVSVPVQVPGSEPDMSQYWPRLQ
Chain of Homeobox protein Hox-C9 (Homo sapiens), P31274 R193A;K194A;K195A;R196A (P31274 whole entry R193A/K194A/K195A/R196A): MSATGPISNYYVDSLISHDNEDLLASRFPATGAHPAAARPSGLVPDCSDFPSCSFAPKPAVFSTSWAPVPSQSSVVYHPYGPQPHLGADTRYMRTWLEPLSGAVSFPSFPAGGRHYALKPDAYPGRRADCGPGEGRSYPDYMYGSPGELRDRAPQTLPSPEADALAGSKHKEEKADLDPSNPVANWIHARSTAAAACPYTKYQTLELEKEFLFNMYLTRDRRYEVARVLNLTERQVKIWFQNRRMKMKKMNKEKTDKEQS
Chain of Homeobox protein Hox-C9 (Homo sapiens), P31274 R234A;M245A (P31274 whole entry R234A/M245A): as the sequence (P31274 whole entry R193A/K194A/K195A/R196A) above, with A193R, A194K, A195K, A196R, R234A, M245A counted along it

effect of a mutation on the interaction (gemi_human GMNN [1]) | effect of a mutation on the interaction (gemi_human GMNN [2]) | Substance
decreasing interaction strength | – | Homeobox protein Hox-C9 (Homo sapiens), P31274 R193A;K194A;K195A;R196A
decreasing interaction strength | – | Homeobox protein Hox-C9 (Homo sapiens), P31274 R234A;M245A
– | increasing interaction strength | Paired box protein Pax-6 (Homo sapiens), P26367 A252R;A263M

From IntAct's records for PubMed 22615398
